Laboratory results reported in article PMC9482650, “Quantitative fragmentomics allow affinity mapping of interactomes” (Nature Communications, 2022).

Legend:
Assay in all cases: holdup assay
Design in all cases: key: below the threshold = too weak to quantify, mostly under pKd 3.1 to 4
[1] = target: T1, APBA1_1, Q02410
T1 sequence (Q02410 651-752, limits assumed, looked up): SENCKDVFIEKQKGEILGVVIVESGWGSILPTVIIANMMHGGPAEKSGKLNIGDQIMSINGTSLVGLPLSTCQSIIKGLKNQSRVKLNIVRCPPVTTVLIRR

[2] = target: T2, APBA1_2, Q02410
T2 sequence (Q02410 742-832, limits assumed, looked up): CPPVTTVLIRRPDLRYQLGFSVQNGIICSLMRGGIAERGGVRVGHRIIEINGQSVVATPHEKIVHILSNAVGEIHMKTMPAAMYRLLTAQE

[3] = target: T3, ARHGAP21, Q5T5U3
T3 sequence (Q5T5U3 45-169, limits assumed, looked up): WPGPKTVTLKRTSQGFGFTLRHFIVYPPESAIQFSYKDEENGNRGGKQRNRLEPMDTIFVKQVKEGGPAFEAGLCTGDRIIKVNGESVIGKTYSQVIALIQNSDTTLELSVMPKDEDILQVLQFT

[4] = target: T4, DLG3_3, Q92796
T4 sequence (Q92796 374-475, limits assumed, looked up): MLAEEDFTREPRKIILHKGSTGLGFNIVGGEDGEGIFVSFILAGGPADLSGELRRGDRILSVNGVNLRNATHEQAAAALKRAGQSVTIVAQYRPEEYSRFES

[5] = target: DLG4_1, P78352
Sequence of DLG4_1, P78352 (P78352 62-152): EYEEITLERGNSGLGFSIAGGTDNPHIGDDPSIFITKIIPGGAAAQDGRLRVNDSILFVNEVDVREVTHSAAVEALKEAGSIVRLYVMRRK

[6] = target: GRID2IP_2, A4D2P6
Sequence of GRID2IP_2, A4D2P6 (A4D2P6 272-370): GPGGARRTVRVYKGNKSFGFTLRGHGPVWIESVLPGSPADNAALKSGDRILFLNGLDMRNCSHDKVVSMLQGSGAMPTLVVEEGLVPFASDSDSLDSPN

[7] = target: GRIP2_3, Q9C0E4
Sequence of GRIP2_3, Q9C0E4 (Q9C0E4 238-339): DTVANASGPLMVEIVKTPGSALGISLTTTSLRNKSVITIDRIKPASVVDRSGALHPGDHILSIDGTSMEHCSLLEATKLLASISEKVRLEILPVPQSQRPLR

[8] = target: GRIP2_5, Q9C0E4
Sequence of GRIP2_5, Q9C0E4 (Q9C0E4 544-642): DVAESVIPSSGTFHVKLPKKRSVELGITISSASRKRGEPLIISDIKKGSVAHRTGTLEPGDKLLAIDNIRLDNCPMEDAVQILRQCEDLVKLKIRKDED

[9] = target: IL16_1, Q14005
Sequence of IL16_1, Q14005 (Q14005 210-306): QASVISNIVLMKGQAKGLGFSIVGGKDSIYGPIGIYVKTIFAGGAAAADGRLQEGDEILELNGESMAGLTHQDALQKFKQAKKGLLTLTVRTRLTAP

[10] = target: Inadl_4, Q8NI35
Sequence of Inadl_4, Q8NI35 (Q8NI35 547-651): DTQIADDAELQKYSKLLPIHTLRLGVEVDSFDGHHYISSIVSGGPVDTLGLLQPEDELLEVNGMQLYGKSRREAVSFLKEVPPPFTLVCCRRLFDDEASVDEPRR

[11] = target: LDB3, O75112
Sequence of LDB3, O75112 (O75112 1-94): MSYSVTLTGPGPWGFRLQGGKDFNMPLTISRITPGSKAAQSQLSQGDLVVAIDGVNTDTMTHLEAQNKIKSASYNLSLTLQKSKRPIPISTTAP

[12] = target: MAGI1_1, Q96QZ7
Sequence of MAGI1_1, Q96QZ7 (Q96QZ7 1-106): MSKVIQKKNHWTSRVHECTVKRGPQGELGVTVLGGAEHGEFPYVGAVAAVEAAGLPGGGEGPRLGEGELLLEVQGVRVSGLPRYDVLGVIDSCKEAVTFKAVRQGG

[13] = target: MAGI2_3, Q86UL8
Sequence of MAGI2_3, Q86UL8 (Q86UL8 600-682): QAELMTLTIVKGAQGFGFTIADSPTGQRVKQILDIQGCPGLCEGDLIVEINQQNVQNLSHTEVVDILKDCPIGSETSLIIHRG

[14] = target: MAST2, Q6P0Q8
Sequence of MAST2, Q6P0Q8 (Q6P0Q8 1099-1202): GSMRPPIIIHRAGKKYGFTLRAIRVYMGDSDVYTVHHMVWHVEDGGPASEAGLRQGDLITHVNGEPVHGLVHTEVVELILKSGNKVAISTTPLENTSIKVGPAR

[15] = target: T5, MPDZ_10, O75970
T5 sequence (O75970 1624-1722, limits assumed, looked up): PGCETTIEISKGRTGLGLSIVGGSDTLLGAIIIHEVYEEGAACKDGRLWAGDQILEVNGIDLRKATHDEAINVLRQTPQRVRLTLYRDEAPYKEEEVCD

[16] = target: T6, MPDZ_5, O75970
T6 sequence (O75970 695-796, limits assumed, looked up): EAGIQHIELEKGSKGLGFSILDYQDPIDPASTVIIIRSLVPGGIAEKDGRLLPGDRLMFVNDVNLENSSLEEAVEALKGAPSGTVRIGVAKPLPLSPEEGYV

[17] = target: T7, MPP7, Q5T2T1
T7 sequence (Q5T2T1 134-230, limits assumed, looked up): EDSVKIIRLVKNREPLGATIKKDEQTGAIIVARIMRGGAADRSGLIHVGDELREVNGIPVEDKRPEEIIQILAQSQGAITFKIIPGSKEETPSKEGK

[18] = target: NHERF2_2, Q15599
Sequence of NHERF2_2, Q15599 (Q15599 142-238): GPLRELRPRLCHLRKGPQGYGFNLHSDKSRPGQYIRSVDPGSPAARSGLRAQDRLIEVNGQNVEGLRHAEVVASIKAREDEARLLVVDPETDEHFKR

[19] = target: T8, NHERF3_1, Q5T2W1
T8 sequence (Q5T2W1 4-100, limits assumed, looked up): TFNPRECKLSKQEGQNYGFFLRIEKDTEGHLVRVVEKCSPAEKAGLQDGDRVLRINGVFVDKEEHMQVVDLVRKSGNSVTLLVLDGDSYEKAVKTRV

[20] = target: NHERF4_2, Q86UT5
Sequence of NHERF4_2, Q86UT5 (Q86UT5 220-308): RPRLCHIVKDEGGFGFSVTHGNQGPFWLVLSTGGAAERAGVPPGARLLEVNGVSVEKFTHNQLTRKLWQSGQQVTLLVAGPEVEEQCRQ

[21] = target: NHERF4_4, Q86UT5
Sequence of NHERF4_4, Q86UT5 (Q86UT5 464-550): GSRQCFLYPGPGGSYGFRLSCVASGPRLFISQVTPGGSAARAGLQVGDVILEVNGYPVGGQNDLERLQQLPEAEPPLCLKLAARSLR

[22] = target: NOS1, P29475
Sequence of NOS1, P29475 (P29475 9-101): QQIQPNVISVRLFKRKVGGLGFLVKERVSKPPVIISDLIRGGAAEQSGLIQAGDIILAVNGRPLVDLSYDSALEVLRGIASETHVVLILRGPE

[23] = target: PARD3_3, Q8TEW0
Sequence of PARD3_3, Q8TEW0 (Q8TEW0 582-685): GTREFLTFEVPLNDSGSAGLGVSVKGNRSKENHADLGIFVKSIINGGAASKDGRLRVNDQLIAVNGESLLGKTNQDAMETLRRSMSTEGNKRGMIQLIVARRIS

[24] = target: T9, PDZD2_2, O15018
T9 sequence (O15018 329-429, limits assumed, looked up): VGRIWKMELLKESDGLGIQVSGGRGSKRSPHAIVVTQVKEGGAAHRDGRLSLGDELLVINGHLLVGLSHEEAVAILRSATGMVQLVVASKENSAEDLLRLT

[25] = target: PICK1, Q9NRD5
Sequence of PICK1, Q9NRD5 (Q9NRD5 17-115): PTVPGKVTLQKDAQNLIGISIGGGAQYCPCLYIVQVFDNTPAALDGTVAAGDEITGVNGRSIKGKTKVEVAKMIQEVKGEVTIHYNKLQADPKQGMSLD

[26] = target: SCRIB_2, Q14160
Sequence of SCRIB_2, Q14160 (Q14160 857-960): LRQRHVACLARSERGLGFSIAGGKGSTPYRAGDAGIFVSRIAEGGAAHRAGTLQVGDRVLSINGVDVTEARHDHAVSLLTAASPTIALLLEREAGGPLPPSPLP

[27] = target: T10, TX1BP3, O14907
T10 sequence (O14907 10-122, limits assumed, looked up): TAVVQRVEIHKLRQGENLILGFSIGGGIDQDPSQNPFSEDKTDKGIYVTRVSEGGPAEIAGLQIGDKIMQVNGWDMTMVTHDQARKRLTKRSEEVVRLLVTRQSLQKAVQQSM

[28] = plain residues with an end cap or a label only (N-terminal biotin on a linker: ado-ado)
[29] = modified: phospho on T at position -2 from the C-terminal residue

With QSGLYESEEL [MYOT, Q9UBF9] the pKd [1, 28] was “below the threshold”, the pKd [2, 28] was “below the threshold” and the pKd [3, 28] was “below the threshold”. The pKd [4, 28] was “below the threshold”, the pKd [5, 28] was “below the threshold” and the pKd [6, 28] was “below the threshold”. For the same binder, the pKd [7, 28] was “below the threshold”, the pKd [8, 28] was “below the threshold” and the pKd [9, 28] was “below the threshold”. For the same binder, the pKd [10, 28] was “below the threshold”, the pKd [11, 28] was 5.2 and the pKd [12, 28] was “below the threshold”. For the same binder, the pKd [13, 28] was “below the threshold”, the pKd [14, 28] was 4.88 and the pKd [15, 28] was “below the threshold”. The pKd [16, 28] was “below the threshold”, the pKd [17, 28] was “below the threshold” and the pKd [18, 28] was 4.04. The pKd [19, 28] was 4.44, the pKd [20, 28] was “below the threshold” and the pKd [21, 28] was “below the threshold”. For the same binder, the pKd [22, 28] was “below the threshold”, the pKd [23, 28] was 3.59 and the pKd [24, 28] was “below the threshold”. For the same binder, the pKd [25, 28] was “below the threshold”, the pKd [26, 28] was “below the threshold” and the pKd [27, 28] was 3.85.

AQRARSPSDV [GPR12, P47775] was tested, and the pKd [1, 28] was “below the threshold”, the pKd [2, 28] was 4.14 and the pKd [3, 28] was “below the threshold”. The pKd [4, 28] was “below the threshold”, the pKd [5, 28] was “below the threshold” and the pKd [6, 28] was “below the threshold”. The pKd [7, 28] was “below the threshold”, the pKd [8, 28] was “below the threshold” and the pKd [9, 28] was “below the threshold”. The pKd [10, 28] was “below the threshold”, the pKd [11, 28] was “below the threshold” and the pKd [12, 28] was 3.67. The pKd [13, 28] was 3.7, the pKd [14, 28] was “below the threshold” and the pKd [15, 28] was 4.09. The pKd [16, 28] was “below the threshold”, the pKd [17, 28] was 3.59 and the pKd [18, 28] was “below the threshold”. The pKd [19, 28] was “below the threshold”, the pKd [20, 28] was “below the threshold” and the pKd [21, 28] was “below the threshold”. The pKd [22, 28] was 3.75, the pKd [23, 28] was “below the threshold” and the pKd [24, 28] was 4.71. For the same binder, the pKd [25, 28] was 3.99, the pKd [26, 28] was “below the threshold” and the pKd [27, 28] was “below the threshold”.

With PYSESDDDWC [CACNA1A, O00555] the pKd [1, 28] was 3.48, the pKd [2, 28] was “below the threshold” and the pKd [3, 28] was 4.17. The pKd [4, 28] was “below the threshold”, the pKd [5, 28] was “below the threshold” and the pKd [6, 28] was “below the threshold”. For the same binder, the pKd [7, 28] was “below the threshold”, the pKd [8, 28] was “below the threshold” and the pKd [9, 28] was “below the threshold”. The pKd [10, 28] was “below the threshold”, the pKd [11, 28] was “below the threshold” and the pKd [12, 28] was “below the threshold”. The pKd [13, 28] was “below the threshold”, the pKd [14, 28] was “below the threshold” and the pKd [15, 28] was “below the threshold”. The pKd [16, 28] was “below the threshold”, the pKd [17, 28] was “below the threshold” and the pKd [18, 28] was 3.74. The pKd [19, 28] was 3.95, the pKd [20, 28] was “below the threshold” and the pKd [21, 28] was “below the threshold”. For the same binder, the pKd [22, 28] was 3.48, the pKd [23, 28] was 3.89 and the pKd [24, 28] was 5.3. The pKd [25, 28] was “below the threshold”, the pKd [26, 28] was “below the threshold” and the pKd [27, 28] was “below the threshold”.

For SSRTRRETQL [HPV16-E6_-2P, P03126], the pKd [1, 29] was “below the threshold”, the pKd [2, 29] was “below the threshold” and the pKd [3, 29] was 4.05. For the same binder, the pKd [4, 29] was “below the threshold”, the pKd [5, 29] was “below the threshold” and the pKd [6, 29] was “below the threshold”. For the same binder, the pKd [7, 29] was “below the threshold”, the pKd [8, 29] was “below the threshold” and the pKd [9, 29] was “below the threshold”. The pKd [10, 29] was “below the threshold”, the pKd [11, 29] was “below the threshold” and the pKd [12, 29] was “below the threshold”. The pKd [13, 29] was “below the threshold”, the pKd [14, 29] was 3.79 and the pKd [15, 29] was “below the threshold”. For the same binder, the pKd [16, 29] was “below the threshold”, the pKd [17, 29] was “below the threshold” and the pKd [18, 29] was “below the threshold”. The pKd [19, 29] was 3.79, the pKd [20, 29] was “below the threshold” and the pKd [21, 29] was “below the threshold”. For the same binder, the pKd [22, 29] was 3.63, the pKd [23, 29] was “below the threshold” and the pKd [24, 29] was “below the threshold”. For the same binder, the pKd [25, 29] was “below the threshold”, the pKd [26, 29] was “below the threshold” and the pKd [27, 29] was 3.98.

EDGESWEYQI [TRPV6, Q9H1D0] was tested, and the pKd [1, 28] was “below the threshold”, the pKd [2, 28] was “below the threshold” and the pKd [3, 28] was 3.57. The pKd [4, 28] was “below the threshold”, the pKd [5, 28] was “below the threshold” and the pKd [6, 28] was “below the threshold”. The pKd [7, 28] was “below the threshold”, the pKd [8, 28] was “below the threshold” and the pKd [9, 28] was “below the threshold”. For the same binder, the pKd [10, 28] was “below the threshold”, the pKd [11, 28] was “below the threshold” and the pKd [12, 28] was “below the threshold”. The pKd [13, 28] was “below the threshold”, the pKd [14, 28] was 4.78 and the pKd [15, 28] was “below the threshold”. For the same binder, the pKd [16, 28] was “below the threshold”, the pKd [17, 28] was 5.06 and the pKd [18, 28] was 3.67. For the same binder, the pKd [19, 28] was “below the threshold”, the pKd [20, 28] was “below the threshold” and the pKd [21, 28] was 3.94. The pKd [22, 28] was “below the threshold”, the pKd [23, 28] was 5.35 and the pKd [24, 28] was 4.66. The pKd [25, 28] was “below the threshold”, the pKd [26, 28] was “below the threshold” and the pKd [27, 28] was “below the threshold”.
